The text below walks through data of patent US20150182631A1, “SYSTEM FOR […]-BASED ACTIVE INGREDIENTS” (Centre National De La Recherche Scientifique-CNRS, priority 2012, published 2015).

Data set [1] concerns the molecule itself. In words: isothermal titration calorimetry, dilution of concentrated XCL into buffer; tetramer-dimer equilibrium; tetramer-dimer equilibrium of XCL by dilution ITC. As to the method:
In order to accurately measure the equilibrium constant of tetramerisation and also determine the thermodynamics of the tetramerisation of XCL, the inventors used isothermal titration calorimetry (Burrows et al., (1994) Lovatt et al., (1996) Barranco-Medina et al. (2009)). In this method, a concentrated solution of XCL was diluted in a buffer, and the dissociation heat of the dimers (or of the monomers) was measured. The quantity of heat released for each injection is governed by the enthalpy exchange from the tetramer to the dimer and the tetramer-dimer equilibrium constant.
(Isothermal titration calorimetry measures the heat released or taken up as one component is titrated into another.)

Data set [2] concerns the molecule itself. In words: size exclusion chromatography at pH 7.2 and pH 4.4; tetramer kept. As to the method:
The behaviour of the oxidised mutant A38C was also analysed. […] When the pH is decreased to 4.4, no modification in the elution volume is observed. The addition of the disulphide bridge therefore increases the stability of the protein assembly. The adding of 0.003% SDS leads to the dissociation of the tetramer into dimers, constituted of monomers bonded together by the disulphide bridge.
(In general: In gel filtration, larger molecules generally elute earlier.)

In data set [3] the target is T1, XCL labelled with RITC (Xerocomus chrysenteron, RITC on surface epsilon-amino groups, 0.9 mol of RITC per mol of XCL).
T1 construct: FRET acceptor population of XCL; also called RITC-XCL; XCL-RITC
T1 chain: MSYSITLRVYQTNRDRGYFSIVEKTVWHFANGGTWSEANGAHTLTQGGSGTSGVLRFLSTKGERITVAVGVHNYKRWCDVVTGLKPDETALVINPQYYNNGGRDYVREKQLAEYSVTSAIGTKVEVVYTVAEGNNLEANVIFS
The data set is described as follows: FRET kinetics at 580 nm after mixing XCL-FITC and XCL-RITC, double exponential fit; slow dissociation of the tetramer (proportion a=0.39); k1, slower of the two dissociation pathways of the tetramer. On the procedure: (§1) The speed of the exchange of subunits was measured by the same technique. The reaction is initiated by mixing the same volume of XCL-RITC (1 μM) and of XCL-FITC (1 μM) at 25° C. in 50 mM of phosphate buffer, 100 mM NaCl, pH 8.5. The excitation is carried out at 468 nm and the fluorescence emission at 580 nm is recorded every 0.5 seconds. The fluorescence intensity is normalised by using the equation: […]

Data set [4] has as its target T1, XCL labelled with RITC. The data set is described as follows: FRET kinetics at 580 nm after mixing XCL-FITC and XCL-RITC, double exponential fit; fast dissociation of the tetramer; k2, faster of the two dissociation pathways of the tetramer. On the procedure: as §1
Data set [5] is described as follows: SDS-PAGE of tetramer and disulphide bridge stability. The data set is classed as physicochemical. The following applies: reduced glutathione 10 mM in oxidation buffer. On the procedure: The clone A38C was obtained by directed mutagenesis by using the XCL plasmid as a matrix and the protein produced and purified by using the same protocol as that used to produce XCL (Trigueros et al. (2003)). A yield of 25 mg of purified protein per litre of culture was obtained. The last part of the protocol consisted in a step of oxidation for 12 hours in the presence of 10 mM of oxidised glutathione. This step is required in order to produce disulphide bridges between the monomers. The forming of these covalent bonds was verified by SDS-PAGE. Two SDS-PAGE were prepared. Beta-mercaptoethanol was added to the samples in the first gel while beta-mercaptoethanol was not added to the second gel. When XCL is heated to 95° C. 5 min before the deposit, a single band is observed with a molecular weight slightly greater than 20 kDa on the two gels. This band corresponds to the species in monomer form.
A variant T12C was produced in the same manner as A38C by directed mutagenesis by using the XCL plasmid as a matrix. By using the same protocol, 10 mg of protein per litre of culture were produced. The oxidation rate of the variant T12C was sought by using the same method by SDS-PAGE as for A38C. These rates were compared with those obtained with the variant A38C. Several oxidative conditions were tested with different concentrations of reduced glutathione. […]

Data set [6] in a line: Balanced FRET, exchange of monomers. The data set is classed as physicochemical. The note with it: 1 h incubation, pH 8.5. As to the method: Fluorescence energy transfer was used to reveal the exchange of the XCL monomers. The exchange reaction is initiated by mixing the same volume of XCL-RITC (1 μM or only the buffer as a reference) and of XCL-FITC (1 μM) at 25° C. in 50 mM of phosphate buffer, 100 mM NaCl, pH 8.5. After one hour of incubation, the emission spectrum of the sample excited at 490 nm is recorded by spectrofluorimetry (Photon Technology International QM-4). The same experiments were carried out with A38C-RITC and A38C-FITC.
The oligomerization balance of the XCL protein was characterised by the measurement of the appearance of resonance energy transfer of the Förster type (FRET) between two populations of XCL labelled separately either with FITC (Fluorescein IsoThioCyanate) or with RITC (Rhodamine IsoThioCyanate).
In this same figure, is also shown the spectrum obtained by mixing the labelled protein, either by the donor or by the acceptor (dotted line curve). This spectrum was deconvoluted, which gives the spectra shown as a dotted line in FIG. 2A.
For the purposes of comparison, the same experiment was carried out with the variant A38C. This variant is covalently bonded by two additional disulphide bridges. A perfectly superimposable spectrum was obtained after mixing donor and acceptor labelled proteins and incubation of this mixture for 1 h at ambient temperature (dotted lines of FIG. 3B).

The nature of data set [7]: Confinement of fluorescein in the lectin cavity. The note with it: 4 days at ambient temperature, free fluorescein eliminated again. As to the method: The confinement experiments are carried out by incubating the wild-type protein (XCL) or the mutants (A38C) with the molecule to be tested. In order to carry out the control experiments with the mutant A38C, an oxidation step is carried out in the presence of GSSG in a phosphate buffer 50 mM, 100 mM NaCl, pH 7.2, OVN. The GSSG is then eliminated on a PD-10 sephadex G-25M column (GE Healthcare) pre-balanced in a phosphate buffer 50 mM, 100 mM NaCl, pH 8.5. The eluate is concentred at 1 ml on Vivaspin 15R 30,000 MWCO (Sartorius stedim). A batch of A38C is reduced to TCEP (under argon) with adding of NaOH for a final pH of 8.5. […] The quantity of fluorescein is measured by using an absorption coefficient of e511 nm=75,000 cm^−1 M^−1. The concentrations of XCL and of A38C after the confinement are calculated with e278 nm=[…]. The percentage of confinement is calculated by forming the ratio of the fluorescein/protein concentrations.
In the case with XCL, the inventors incubated the protein (15 μM) with fluorescein (10 mM) and then separated the protein from the non-confined molecules of fluorescein by two successive gel filtration columns. Beforehand, the inventors verified that if these two columns on the fluorescein solution are carried out at 10 mM, no residual free fluorescein is detected. […]

Data set [8] is described as follows: Chemical dissociation by size exclusion chromatography at acidic pH. It is filed as physicochemical. On the procedure:
The size exclusion chromatography experiments were carried out on a GE-Healthcare Superose 12 PC 3.2/30 column. The columns are pre-balanced in the buffer tested, namely phosphate buffer 50 mM, 100 mM NaCl, pH7.2 or pH 4.4 in the absence or in the presence of 0.003% of SDS. The flow rate is 0.5 mL/min. The BSA and the RNase A are used as a size marker.
The inventors studied the behaviour of XCL in denaturing chemical conditions close to those encountered in the lysosomes. The analysis was carried out via exclusion chromatography with an acidic pH (pH 4.4). It appears that the elution peak of XCL in these denaturing conditions is displaced to greater elution volumes showing the appearance of a smaller size. When 0.003% SDS is added, the elution peak is displaced to the elution volume of the RNAse A which has a molecular weight close to the XCL monomer.
The behaviour of the oxidised mutant A38C was also analysed. […] The addition of the disulphide bridge therefore increases the stability of the protein assembly.

Residue numbers refer to the chain shown, from its start. Numbers in names are those of the source.

B1: Xerocomus chrysenteron lectin (XCL) (other)
chain: T1 chain
notes: Recombinant fungal lectin, a homotetramer in solution; also called wild-type protein; native XCL protein
For the molecule B1, in data set [1], the dissociation constant Kd – broadly, the constant that tells how readily two partners part at equilibrium – came out at 4.5 µM.

B2: XCL variant A38C, oxidised (other)
chain: T1 chain with A38C
modifications: interchain disulphide bridge between Cys 38 of opposite monomers (oxidised with GSSG)
notes: Homotetramer with two added disulphide bridges that link monomers diagonally; In the FRET experiment it was labelled with FITC or RITC; also called mutant A38C; oxidised mutant A38C
As for B2, the binding result in data set [2] is “binds”.

B3: XCL labelled with FITC (other)
chain: T1 chain
modifications: FITC on surface epsilon-amino groups, 4 mol of FITC per mol of XCL
notes: FRET donor population of XCL; also called FITC-XCL; XCL-FITC
Take B3: the koff – broadly, the first-order rate constant of dissociation – in data set [3] was found to be 0.012 s⁻¹; in data set [4], 0.042 s⁻¹.

B4: T12C: XCL variant with threonine 12 replaced by cysteine, SEQ ID NO: 3 (protein)
chain: T1 chain with T12C
modifications: Variant T12C
As for B4, the “stability of the additional disulphide bridge” value in data set [5] is given as “less stable than the disulphide bridge of A38C”.

B5: A38C: XCL variant with alanine 38 replaced by cysteine, SEQ ID NO: 2; A38R reduced before confinement, A38NR not reduced, A38Cox oxidised (protein)
chain: T1 chain with A38C
modifications: Variant A38C
notes: A38R reduced before confinement, A38NR not reduced, A38Cox oxidised
For B5, the “FRET between FITC- and RITC-labelled protein after mixing (monomer redistribution)” value in data set [6] is given as “no FRET is observed”. Moreover, the “confinement rate after incubation” value in data set [7] is recorded as “remained unchanged”. In addition, the “oligomeric state by elution volume at pH 4.4 with SDS” value in data set [8] (pH 4.4, 0.003% SDS) is on record as “dissociation of the tetramer into dimers”. Besides, the “oligomeric state by elution volume at pH 4.4” value in data set [8] (pH 4.4, no SDS) is on record as “no modification in the elution volume is observed”.
